Here are results for 2 molecules from publication PMC3472031.

Values joined by “and” are separate entries in the source; they are usually repeats but may differ in a detail not shown here. Identical values can stand only once.

For experiment [1], the target named is EspFU R475 R475 (fifth 47-residue repeat) (Escherichia coli O157:H7), P0DJ88. Kind of experiment: ITC. For orientation: Isothermal titration calorimetry measures the heat released or taken up as one component is titrated into another.
In experiment [2] the target is EspFU R2 20-residue peptide from second repeat (Escherichia coli O157:H7), P0DJ88. Kind of experiment: ITC.

B1: N-WASP GBD GBD, O00401 (protein)
chain: KRLTKADIGTPSNFQHIGHVGWDPNTGFDLNNLDPELKNLFDMCGISEAQLKDRETSKVIYDFIEKTGGVEAVKNELRR
By Kd is commonly meant a measure of binding affinity in units of concentration. Read a high Kd as weaker binding. In the case of B1, in experiment [1], the Kd is 40 nM and 70 nM.

B2: IRTKS SH3 SH3, Q9UHR4 (protein)
chain: LNMMKKQKVKTIFPHTAGSNKTLLSFAQGDVITLLIPEEKDGWLYGEHDVSKARGWFPSSYTKLLEENET
For the molecule B2, the Kd in experiment [2] was 1100 nM.
